Test results: paper PMC2173747 (The Journal of Cell Biology, 2003)

Biological target: purified human gelsolin (human, UniProt P06396 28-782)
Assay: ELISA

Chain of purified human gelsolin (P06396 28-782): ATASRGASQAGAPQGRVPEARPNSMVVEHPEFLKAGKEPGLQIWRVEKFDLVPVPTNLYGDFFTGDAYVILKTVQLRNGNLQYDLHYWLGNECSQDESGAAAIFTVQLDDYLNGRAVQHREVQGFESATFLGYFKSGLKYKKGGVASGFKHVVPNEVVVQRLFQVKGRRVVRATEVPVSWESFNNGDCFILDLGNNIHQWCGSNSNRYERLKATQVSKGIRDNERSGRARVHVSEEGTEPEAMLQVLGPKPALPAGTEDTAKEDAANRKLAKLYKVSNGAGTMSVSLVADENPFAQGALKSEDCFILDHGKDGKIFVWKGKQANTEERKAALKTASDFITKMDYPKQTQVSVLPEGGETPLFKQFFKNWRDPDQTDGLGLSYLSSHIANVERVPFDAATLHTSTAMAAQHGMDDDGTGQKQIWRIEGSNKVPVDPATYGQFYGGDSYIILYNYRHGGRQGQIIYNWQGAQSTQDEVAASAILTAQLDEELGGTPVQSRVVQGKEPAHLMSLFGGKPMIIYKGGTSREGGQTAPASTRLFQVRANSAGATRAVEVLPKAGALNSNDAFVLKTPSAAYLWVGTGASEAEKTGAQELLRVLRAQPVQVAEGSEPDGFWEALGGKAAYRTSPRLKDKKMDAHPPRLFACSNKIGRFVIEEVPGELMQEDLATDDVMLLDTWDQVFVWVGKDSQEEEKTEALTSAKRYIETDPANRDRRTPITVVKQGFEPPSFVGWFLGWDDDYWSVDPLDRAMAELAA

EC50: 30 ± 4 nM
B1: GST-PYK2Δ1–781 (domain or fragment)
chain: EEDFIQPSSREEAQQLWEAEKVKMRQILDKQQKQMVEDYQWLRQEEKSLDPMVYMNDKSPLTPEKEVGYLEFTGPPQKPPRLGAQSIQPTANLDRTDDLVYLNVMELVRAVLELKNELCQLPPEGYVVVVKNVGLTLRKLIGSVDDLLPSLPSSSRTEIEGTQKLLNKDLAELINKMRLAQQNAVTSLSEECKRQMLTASHTLAVDAKNLLDAVDQAKVLANLAHPPAE
